Tested on: PBMC of subjects with JIA
Experiment: T cell proliferation assay, PBMC of subjects with JIA
Type: cell-based, human
Settings: majority of JIA subjects; SI of 2 or higher positive

B1: whole human hsp60: whole human hsp60 protein (protein)
chain: MLRLPTVFRQMRPVSRVLAPHLTRAYAKDVKFGADARALMLQGVDLLADAVAVTMGPKGRTVIIEQGWGSPKVTKDGVTVAKSIDLKDKYKNIGAKLVQDVANNTNEEAGDGTTTATVLARSIAKEGFEKISKGANPVEIRRGVMLAVDAVIAELKKQSKPVTTPEEIAQVATISANGDKEIGNIISDAMKKVGRKGVITVKDGKTLNDELEIIEGMKFDRGYISPYFINTSKGQKCEFQDAYVLLSEKKISSIQSIVPALEIANAHRKPLVIIAEDVDGEALSTLVLNRLKVGLQVVAVKAPGFGDNRKNQLKDMAIATGGAVFGEEGLTLNLEDVQPHDLGKVGEVIVTKDDAMLLKGKGDKAQIEKRIQEIIEQLDVTTSEYEKEKLNERLAKLSDGVAVLKVGGTSDVEVNEKKDRVTDALNATRAAVEEGIVLGGGCALLRCIPALDSLTPANEDQKIGIEIIKRTLKIPAMTIAKNAGVEGSLIVEKIMQSSSEVGYDAMAGDFVNMVEKGIIDPTKVVTALLDAAGVASLLTTAEVVVTEIPKEEKDPGMGAMGGMGGGMGGGMF
modifications: Homo sapiens hsp60
notes: whole human hsp60 protein
- T cell proliferative response to whole hsp60: positive T cell proliferative response

Reference: US7608683B2, “Stress proteins and peptides and methods of use thereof” (The Regents of the University of California, priority 2000, dated 2009)
